Source: patent publication US20150366985A1

Target: protein A found on S. aureus (Staphylococcus aureus) (UniProt P02976)
Experiment: FACS, Alexa-488 labeled antibodies at 0.08-50 ug/mL on MRSA isolated from infected mouse kidneys; low level binding attributed by the filing to protein A

protein A found on S. aureus (Staphylococcus aureus), sequence (P02976 37-485): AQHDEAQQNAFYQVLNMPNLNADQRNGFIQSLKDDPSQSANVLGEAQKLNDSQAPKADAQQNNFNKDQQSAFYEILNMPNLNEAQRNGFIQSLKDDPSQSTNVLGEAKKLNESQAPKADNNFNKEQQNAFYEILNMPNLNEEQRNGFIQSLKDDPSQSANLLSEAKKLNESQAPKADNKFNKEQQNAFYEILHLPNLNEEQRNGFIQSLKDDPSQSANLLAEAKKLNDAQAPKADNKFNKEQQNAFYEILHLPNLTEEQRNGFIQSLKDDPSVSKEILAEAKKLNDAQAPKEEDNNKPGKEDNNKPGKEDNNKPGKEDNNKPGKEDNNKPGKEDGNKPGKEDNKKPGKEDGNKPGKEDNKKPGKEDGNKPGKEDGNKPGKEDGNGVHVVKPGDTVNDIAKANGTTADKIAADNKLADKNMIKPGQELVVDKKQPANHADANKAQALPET

gD antibody (negative control human IgG1 that does not recognize S. aureus)
fold lower binding than the S4497 antibody (fold lower than S4497 antibody): 30
